We go through 18 molecules from patent US20250179160A1 (OMEROS, published 2025).

Bounds are passed on as bounds.

The target in experiment [1] is T1, recombinant human mature Factor D (human, UniProt P00746 26-253).
T1 construct: also called mature CFD; hCFD
The experiment is described as follows: capture ELISA: recombinant Factor D captured by plate-bound goat polyclonal AF1824; hybridoma supernatant diluted two-fold; HRP goat anti-mouse IgG Fc; OD450.
Procedure: The specificity of anti-human pro-CFD hybridomas were further analyzed as follows. […] ELISA plates were coated with polyclonal anti-human factor D antibody AF1824 (R&D Systems). Hybridoma supernatants were diluted two-fold in PBS, 0.05% Tween 20 (PBST). […] Hybridoma supernatants and control samples were allowed to bind to captured pro or mature Factor D for one hour at room temperature. After washing three times with PBST, 100 μL/well of HRP-goat anti-mouse IgG Fc gamma secondary antibody (Jackson ImmunoResearch) diluted in PBST was added and incubated for 1 hour at room temperature. After washing three times with PBST, TMB substrate (ThermoFisher), 100 μL/well, was added. After 4 minutes the reaction was stopped with 50 μL/well of 1N H2SO₄, then read at 450 nm on a Biotek™ ELISA plate reader.

For experiment [2], the target named is T2, recombinant human Pro-Factor D (human, UniProt P00746 20-253).
T2 construct: also used for the endogenous pro-Factor D detected in 3MC patient serum; also called pro CFD; hPro-CFD
The experiment is described as follows: capture ELISA: recombinant Factor D captured by plate-bound goat polyclonal AF1824; hybridoma supernatant diluted two-fold; OD450. For orientation: ELISA stands for enzyme-linked immunosorbent assay.
Procedure: Hybridoma supernatants were first screened for binding to immobilized recombinant human mature Factor D-His. […] ELISA plates were coated with polyclonal anti-human factor D antibody AF1824 (R&D Systems). Hybridoma supernatants were diluted two-fold in PBS, 0.05% Tween 20 (PBST). Supernatant from NS-1 myeloma cell line (NS-1 sup) was included as a matrix control to determine the level of assay background.

Experiment [3] has as its target T1, recombinant human mature Factor D. The experiment is described as follows: BLI (Octet ForteBio), 20 nM human IgG4 antibody on anti-human sensors, antigen 111 nM. For orientation: BLI is a label-free optical method that tracks binding on a fibre tip over time.
Procedure: Affinities of candidate antibodies to human mature-Factor-D versus human pro-Factor D were determined as follows.
Association and dissociation constants were determined by Octet Fortebio.
The target of experiment [4] is T2, recombinant human Pro-Factor D. In words: sandwich ELISA: Factor D titrated (ug/ml Df) on plate-bound goat polyclonal AF1824; purified recombinant human IgG4 antibody as detection antibody; OD450.
Source text: An HRP-tagged anti-mouse secondary antibody followed by TMB substrate was used to develop the assay.
Experiment [5] addresses T1, recombinant human mature Factor D. The experiment is described as follows: ELISA: antibody titrated 3-fold from 3 ug/ml on plate coated with 1 ug/ml recombinant human mature Factor D; HRP anti-mouse, rat or human secondary; OD450.

B1: 13A10, hybridoma supernatant (antibody, V domains shown)
VH: DVQLQESGPGLVKPSQSLSLTCTVTGYSITSDYAWNWIRQFPGNKLEWMGYISYIGGIGYNPSLKSRISITRDTSKNQFFLHLNSVTTGDTATYYCARNGAMDFWGQGISVTVSS
VL: DIVLTQSPASLAVSLGQRATISCKASQSVDYDGDSYMNWYQQKPGQPPKLLIYDASNLESGIPARFSGSGSGTDFTLNIHPVEEEDAATYYCQQSNEAPWTFGGGTKLEIKR
notes: Mouse hybridoma antibody
B1: the binding result in experiment [1] is “no binding”.

B2: 21H1, hybridoma supernatant (antibody, V domains shown)
VH: DVQLQESGPGLVKPSQSLSLTCTVTGYSITSDYAWNWIRQFPGNKLEWMGYISYSGSTGYSPSLKSRISITRDTSKNQFFLHLNSVTTGDTATYYCARNGAMDYWGQGISVTVSS
VL: DIVLTQSPASLAVSLGQRATISCKASQSVDYDGDSYMNWYQQKPGQPPKLLIYDASTLESGIPARFSGSGSGTDFTLNIHPVEEEDAATYYCQQNYEAPWTFGGGTKLEIKR
notes: Mouse hybridoma antibody
Regarding B2, the binding result in experiment [1] is reported as “no binding”.

B3: 6G6, hybridoma supernatant (antibody, V domains shown)
VH: QITLKESGPGILQSSQTLSLTCSFSGISLTTSGMGVSWIRQPSGKGLEWLAHIYWDDEKHYHPSLKSRLTISKDASRNQVFFRILSVDTADTATYYCALRYYGYRSFMDYWGQGTSVTVSS
VL: DVLMTQSPLSLPVSLGDQASIFCRSNQSIVHSNGNTYFEWYLQKPGQSPKLLIYKVSNRFSGVPDRFSGSGSGTDFTLRISRVEAEDLGVYYCFQGSHVPPTFGGGTKLEIKR
notes: Mouse hybridoma antibody
In the case of B3, the binding result in experiment [2] is listed as “no binding”.

B4: 27B3, purified recombinant, human IgG4 (antibody, V domains shown)
VH: QVTLKESGPGILQSSQTLSLTCSFSGISLNISGMGVSWIRQPSGKGLEWLAHIYWDDEKHYNPSLKRRLTISKDASRNQVFFRISSVDSADTATYYCALRYYGYGSIMDYWGHGTSVTVSS
VL: DVLMTQTPLSLPVSLGDQASISCRSSQSIVHSNGNTYFEWYLQKPGQSPKLLIYKVSNRFSGVPDRFSGSGSGTDFTLKISRVEAEDLGVYYCFQGSHVPPTFGGGTKLEIKR
notes: Mouse variable regions on human IgG4 (S228P) and human kappa constant regions
The Kd is the concentration at which binding is half-saturated. Consider B4, for which the Kd in experiment [3] is 24.1 nM. The binding result in experiment [4] is “no binding”.

B5: 6G6, purified recombinant, human IgG4 (antibody, V domains shown)
VH: QITLKESGPGILQSSQTLSLTCSFSGISLTTSGMGVSWIRQPSGKGLEWLAHIYWDDEKHYHPSLKSRLTISKDASRNQVFFRILSVDTADTATYYCALRYYGYRSFMDYWGQGTSVTVSS
VL: DVLMTQSPLSLPVSLGDQASIFCRSNQSIVHSNGNTYFEWYLQKPGQSPKLLIYKVSNRFSGVPDRFSGSGSGTDFTLRISRVEAEDLGVYYCFQGSHVPPTFGGGTKLEIKR
notes: as for B4
Consider B5, for which, in experiment [3], the Kd was determined as 14.3 nM. Also, in experiment [4], the binding result is “no binding”.

B6: 49G3, purified recombinant, human IgG4 (antibody, V domains shown)
VH: QVTLKESGPGILQSSQTLSLTCSFSGISLSSSGMGVSWIRQPSGKGLEWLAHIYWDDEKHYNPSLKSRLTISKDASRNQIFLKIISVDTADTATYYCALRYYGYNYVMHYWGQGTSVTVSS
VL: DVLMTQTPLSLPVSLGDQASISCRSSQSILHSNGNTYFEWYLQKPGQSPKLLIYKVSNRFSGVPDRFSGSGSGTDFTLKISRVEAEDLGVYYCFQGSHVPPTFGGGTKLEIKR
notes: as for B4
On to B6, for which the Kd in experiment [3] was found to be 2.3 nM. The binding result in experiment [4] was “no binding”.

B7: 49G3, hybridoma supernatant (antibody, V domains shown)
VH: QVTLKESGPGILQSSQTLSLTCSFSGISLSSSGMGVSWIRQPSGKGLEWLAHIYWDDEKHYNPSLKSRLTISKDASRNQIFLKIISVDTADTATYYCALRYYGYNYVMHYWGQGTSVTVSS
VL: DVLMTQTPLSLPVSLGDQASISCRSSQSILHSNGNTYFEWYLQKPGQSPKLLIYKVSNRFSGVPDRFSGSGSGTDFTLKISRVEAEDLGVYYCFQGSHVPPTFGGGTKLEIKR
notes: Mouse hybridoma antibody
On to B7, for which, in experiment [2], the binding result is on record as “no binding”.

B8: 10G1, purified recombinant, human IgG4 (antibody, V domains shown)
VH: QVTLKESGPGILQSSQTLSLTCSFSGVSLSSSGMGVSWIRQPSGKGLEWLAHIYWDDEKHYNPSLKSRLTISKGASRNQVFLKIISVDTADTATYYCALRYYGYNSIMHYWGQGASVTVSS
VL: DVLMTQTPLSLPVSLGDQASISCRSSESIVHSNGNTYLEWYLQKPGQSPKLLIYKVYNRFSGVPDRFSGSGSGTDFTLKISRVEAEDLGVYYCFQGSHVPPTFGGGTKLEIKR
notes: as for B4
As for B8, the dissociation constant Kd in experiment [3] turned out to be 0.731 nM. Further, the binding result in experiment [4] is on record as “no binding”.

B9: 10G1, hybridoma supernatant (antibody, V domains shown)
VH: QVTLKESGPGILQSSQTLSLTCSFSGVSLSSSGMGVSWIRQPSGKGLEWLAHIYWDDEKHYNPSLKSRLTISKGASRNQVFLKIISVDTADTATYYCALRYYGYNSIMHYWGQGASVTVSS
VL: DVLMTQTPLSLPVSLGDQASISCRSSESIVHSNGNTYLEWYLQKPGQSPKLLIYKVYNRFSGVPDRFSGSGSGTDFTLKISRVEAEDLGVYYCFQGSHVPPTFGGGTKLEIKR
notes: Mouse hybridoma antibody
As to B9, the binding result in experiment [2] is listed as “no binding”.

B10: 58F5, purified recombinant, human IgG4 (antibody, V domains shown)
VH: QVTLKESGPGILQSSQTLSLTCSFSGISLNTSIMGVSWIRQPSGKGLEWLAHIYWDDEKHYNPSLKSRLTISKDASRNQVFLKIISVDTADTATYYCALRYYGYNYVMHYWGQGTSVTVSS
VL: DVLMTQTPLSLPVSLGDQASISCRSSQSIVHSNGNTYLEWYLQKPGQSPKLLIYKVSNRFSGVPDRFSGSGSGTDFTLKISRVEADDLGVYYCFQGSHVPPTFGGGTKLEIKR
notes: as for B4
Turning to B10, the Kd in experiment [3] is less than 0.001 nM. The binding result in experiment [4] was “no binding”.

B11: 14A11, purified recombinant, human IgG4 (antibody)
heavy: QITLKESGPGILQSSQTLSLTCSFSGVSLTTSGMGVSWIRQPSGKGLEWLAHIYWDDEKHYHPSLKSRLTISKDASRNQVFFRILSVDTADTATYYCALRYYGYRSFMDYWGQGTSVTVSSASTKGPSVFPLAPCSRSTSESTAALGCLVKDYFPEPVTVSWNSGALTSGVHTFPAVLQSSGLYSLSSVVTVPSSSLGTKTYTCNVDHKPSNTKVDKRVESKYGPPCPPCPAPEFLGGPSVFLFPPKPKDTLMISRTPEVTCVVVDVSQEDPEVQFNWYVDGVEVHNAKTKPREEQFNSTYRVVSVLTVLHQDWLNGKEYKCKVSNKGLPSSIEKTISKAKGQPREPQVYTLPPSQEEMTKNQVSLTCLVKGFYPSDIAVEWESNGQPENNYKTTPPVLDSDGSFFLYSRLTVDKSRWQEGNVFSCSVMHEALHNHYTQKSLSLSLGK
light: DVLMTQSPLSLPVSLGDQASIFCRSNQSIVHSNGNTYFEWYLQKPGQSPKLLIYKVSNRFSGVPDRFSGSGSGTDFTLRISRVEAEDLGIYYCFQGSHVPPTFGGGTKLEIKRTVAAPSVFIFPPSDEQLKSGTASVVCLLNNFYPREAKVQWKVDNALQSGNSQESVTEQDSKDSTYSLSSTLTLSKADYEKHKVYACEVTHQGLSSPVTKSFNRGEC
notes: as for B4
Consider B11, for which, in experiment [3], the Kd amounted to 9.77 nM. In addition, the binding result in experiment [4] is listed as “no binding”.

B12: 58F5, hybridoma supernatant (antibody, V domains shown)
VH: QVTLKESGPGILQSSQTLSLTCSFSGISLNTSIMGVSWIRQPSGKGLEWLAHIYWDDEKHYNPSLKSRLTISKDASRNQVFLKIISVDTADTATYYCALRYYGYNYVMHYWGQGTSVTVSS
VL: DVLMTQTPLSLPVSLGDQASISCRSSQSIVHSNGNTYLEWYLQKPGQSPKLLIYKVSNRFSGVPDRFSGSGSGTDFTLKISRVEADDLGVYYCFQGSHVPPTFGGGTKLEIKR
notes: Mouse hybridoma antibody; also called 58GF5
As to B12, the binding result in experiment [2] is on record as “no binding”.

B13: 1F9, purified recombinant, human IgG4 (antibody, V domains shown)
VH: EVKLEESGGGLVQPGGSMKLSCVASGFTFGSYWMSWVRQSPEKGLEWVAEIRLKSDNYAAHYAESVKGKFTISRDDSKSRLYLQMNSLRGEDTGIYYCTNAWFASWGQGTLVTVSA
VL: DIVMSQSPSSLTVSVGEKVTMSCMSSQSLLYSKDQKNYLAWYQQKPGQSPTLLIYWASTRESGVPDRFTGSGSGTDFTLTISSVKAEDLAVYYCLQYYTYPYTFGGGTKLEIKR
notes: as for B4
For the molecule B13, the binding result in experiment [5] is “no binding (tested: 3 ug/ml)”.

B14: 20A1, purified recombinant, human IgG4 (antibody, V domains shown)
VH: EVKLEESGGGLVQPGGSMKLSCIASGFTFSTYWMSWVRQSPEKGLEWVAEIRLKSENYATYYAESVKGKFIISRDDSKSRLYLQMNSLRAEDTGIYYCTNAWFANWGQGTLVTVSA
VL: DIVMSQSPSSLVVSVGEKVTMSCKSSQNLLYSRDQKNYLAWYQQKPGQSPNLLIYWASTRESGVPDRFTGSGSGTDFSLTISSVKAEDLAVYYCLQYYSYPYTFGGGTKLEMKR
notes: as for B4
B14: the binding result in experiment [5] is “no binding (tested: 3 ug/ml)”.

B15: 20A1, hybridoma supernatant (antibody, V domains shown)
VH: EVKLEESGGGLVQPGGSMKLSCIASGFTFSTYWMSWVRQSPEKGLEWVAEIRLKSENYATYYAESVKGKFIISRDDSKSRLYLQMNSLRAEDTGIYYCTNAWFANWGQGTLVTVSA
VL: DIVMSQSPSSLVVSVGEKVTMSCKSSQNLLYSRDQKNYLAWYQQKPGQSPNLLIYWASTRESGVPDRFTGSGSGTDFSLTISSVKAEDLAVYYCLQYYSYPYTFGGGTKLEMKR
notes: Mouse hybridoma antibody
Consider B15, for which the binding result in experiment [1] was “no binding”.

B16: 18F5, hybridoma supernatant (antibody, V domains shown)
VH: EVKLEESGGGLVQPGGSMKLSCVASGFTFGNYWMSWVRQSPEKGLEWVAEIRLKSDNYATHYAESVKGKFTISRDDSKSRLYLQMNSLRGEDTGLYYCTNAWFASWGQGTLVTVSA
VL: DIVMSQSPSSLAVSVGEKVTMSCMSSQSLLYSKDQKNYLAWYQQKPGQSPKLLIYWASTRESGVPDRFTGSGSGTDFTLTISSVKAEDLAVYYCLQYYTYPYTFGGGTKLEIKR
notes: Mouse hybridoma antibody
Take B16: the binding result in experiment [1] was “no binding”.

B17: 1F9, hybridoma supernatant (antibody, V domains shown)
VH: EVKLEESGGGLVQPGGSMKLSCVASGFTFGSYWMSWVRQSPEKGLEWVAEIRLKSDNYAAHYAESVKGKFTISRDDSKSRLYLQMNSLRGEDTGIYYCTNAWFASWGQGTLVTVSA
VL: DIVMSQSPSSLTVSVGEKVTMSCMSSQSLLYSKDQKNYLAWYQQKPGQSPTLLIYWASTRESGVPDRFTGSGSGTDFTLTISSVKAEDLAVYYCLQYYTYPYTFGGGTKLEIKR
notes: Mouse hybridoma antibody
For the molecule B17, the binding result in experiment [1] is recorded as “no binding”.

B18: 2A4, hybridoma supernatant (antibody, V domains shown)
VH: EVKLEESGGGLVQPGGSMKLSCVASGFTFSTYWMSWVRQSPEKGLEWVAEIRLKSDNYATHYTESVKGKFTISRDDSKSRLYLQMNSLRVEDTGIYYCTNAWFAYWGQGTLVTVSA
VL: DIVMSQSPSSLAVSVGEKFTMSCKSSQSLLYSRDQKNYLAWYQQQPGQSPKLLIYWASTRESGVPDRFTGSGSGTDFTLTISSVKTEDLAVYYCLQYYSYPYTFGGGTKLEIKR
notes: Mouse hybridoma antibody
B18: the binding result in experiment [1] is given as “no binding”.
